# Test results published in the supplement of paper PMC10567573.
# B1: ELF3 (parent)
# chain: LSKEYWDCLEGKKSKHAPRGTHLW
# B2: PLK2 (parent)
# chain: YAELGQCSVFPATDAPEQFISQVT
# Variants of: B1
# Assay: protein stability index of a GFP-peptide fusion (GPS, HEK-293T) (PSI 1-6); higher = more stable
# Conditions: c terminus: a fixed tail appended
# 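Note: lentivirally expressed fusions sorted by FACS into six bins by GFP to DsRed ratio, PSI derived from sequencing read proportions per bin multiplied by bin number.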
row,Variant,protein stability index
1,LSKEYWDCLEGKKSKHAPMGTHLW [R19M],2.83
2,LSKEYWDCLEGKKSKHAPSGTHLW [R19S],3.29
3,LSKEYWDCLEGKKSKHAPFGTHLW [R19F],2.25
4,LSKEYWDCLEGKKSKHAPAGTHLW [R19A],3.06
5,LSKEYWDCLEGKKSKHAPRGTDLW [H22D],3.31
6,LSKEYWDCLEGKKSKHAPRGTTLW [H22T],2.84
7,LSKEYWDCLEGKKSKHAPRGTNLW [H22N],3.23
8,LSKEYWDCLEGKKSKHAPRGTQLW [H22Q],3.05
9,LSKEYWDCLEGKKSKHAPRGTYLW [H22Y],2.51
10,LSKEYWDCLEGKKSKHAPRGTALW [H22A],2.56
11,LSKEYWDCLEGKKSKHAPRGTGLW [H22G],2.68
12,LSKEYWDCLEGKKSKHAPRGTPLW [H22P],3.03
13,LSKEYWDCLEGKKSKHAPRGTLLW [H22L],2.12
14,LSKEYWDCLEGKKSKHAPRGTILW [H22I],2.42
15,LSKEYWDCLEGKKSKHAPRGTSLW [H22S],3.1
16,LSKEYWDCLEGKKSKHAPRGTRLW [H22R],2.85
17,LSKEYWDCLEGKKSKHAPRGTWLW [H22W],1.95
18,LSKEYWDCLEGKKSKHAPRGTKLW [H22K],2.99
19,LSKEYWDCLEGKKSKHAPRGTCLW [H22C],2.45
20,LSKEYWDCLEGKKSKHAPRGTELW [H22E],3.29
21,LSKEYWDCLEGKKSKHAPRGTVLW [H22V],2.43

row,Variant,protein stability index
1,LSKEYWDCLEGKKSKHAPRGTMLW [H22M],2.37
2,LSKEYWDCLEGKKSKHAPRGTFLW [H22F],1.92
3,LSKEYWDCLEGKKSKHAPRGTHPW [L23P],3.13
4,LSKEYWDCLEGKKSKHAPRGTHKW [L23K],3.29
5,LSKEYWDCLEGKKSKHAPRGTHEW [L23E],4.03
6,LSKEYWDCLEGKKSKHAPRGTHWW [L23W],2.71
7,LSKEYWDCLEGKKSKHAPRGTHIW [L23I],2.66
8,LSKEYWDCLEGKKSKHAPRGTHRW [L23R],3.25
9,LSKEYWDCLEGKKSKHAPRGTHSW [L23S],3.41
10,LSKEYWDCLEGKKSKHAPRGTHTW [L23T],3.29
11,LSKEYWDCLEGKKSKHAPRGTHDW [L23D],4.24
12,LSKEYWDCLEGKKSKHAPRGTHCW [L23C],3.11
13,LSKEYWDCLEGKKSKHAPRGTHFW [L23F],2.93
14,LSKEYWDCLEGKKSKHAPRGTHHW [L23H],3.42
15,LSKEYWDCLEGKKSKHAPRGTHYW [L23Y],2.85
16,LSKEYWDCLEGKKSKHAPRGTHMW [L23M],3.27
17,LSKEYWDCLEGKKSKHAPRGTHQW [L23Q],3.59
18,LSKEYWDCLEGKKSKHAPRGTHNW [L23N],3.29
19,LSKEYWDCLEGKKSKHAPRGTHGW [L23G],3.42
20,LSKEYWDCLEGKKSKHAPRGTHVW [L23V],2.93
21,LSKEYWDCLEGKKSKHAPRGTHAW [L23A],3.24

# Variants of: B2
# Assay: as above
# Conditions: c terminus: a fixed tail appended
row,Variant,protein stability index
1,VAELGQCSVFPATDAPEQFISQVT [Y1V],3.56
2,KAELGQCSVFPATDAPEQFISQVT [Y1K],4.16
3,FAELGQCSVFPATDAPEQFISQVT [Y1F],2.24
4,HAELGQCSVFPATDAPEQFISQVT [Y1H],4
5,EAELGQCSVFPATDAPEQFISQVT [Y1E],4.52
6,IAELGQCSVFPATDAPEQFISQVT [Y1I],3.44
7,CAELGQCSVFPATDAPEQFISQVT [Y1C],3.13
8,GAELGQCSVFPATDAPEQFISQVT [Y1G],4.39
9,SAELGQCSVFPATDAPEQFISQVT [Y1S],4.09
10,LAELGQCSVFPATDAPEQFISQVT [Y1L],3.54
11,MAELGQCSVFPATDAPEQFISQVT [Y1M],3.63
12,TAELGQCSVFPATDAPEQFISQVT [Y1T],3.99
13,RAELGQCSVFPATDAPEQFISQVT [Y1R],3.78
14,AAELGQCSVFPATDAPEQFISQVT [Y1A],4.32
15,PAELGQCSVFPATDAPEQFISQVT [Y1P],4.5
16,WAELGQCSVFPATDAPEQFISQVT [Y1W],2.84
17,QAELGQCSVFPATDAPEQFISQVT [Y1Q],4.7
18,NAELGQCSVFPATDAPEQFISQVT [Y1N],4.46
19,DAELGQCSVFPATDAPEQFISQVT [Y1D],4.58
20,YAKLGQCSVFPATDAPEQFISQVT [E3K],2.17
21,YARLGQCSVFPATDAPEQFISQVT [E3R],2.09
22,YAILGQCSVFPATDAPEQFISQVT [E3I],1.63
23,YAFLGQCSVFPATDAPEQFISQVT [E3F],1.94
24,YAPLGQCSVFPATDAPEQFISQVT [E3P],2.27
25,YAALGQCSVFPATDAPEQFISQVT [E3A],1.85
26,YALLGQCSVFPATDAPEQFISQVT [E3L],1.43

row,Variant,protein stability index
1,YADLGQCSVFPATDAPEQFISQVT [E3D],2.19
2,YAMLGQCSVFPATDAPEQFISQVT [E3M],1.97
3,YAQLGQCSVFPATDAPEQFISQVT [E3Q],2.02
4,YANLGQCSVFPATDAPEQFISQVT [E3N],2.08
5,YAGLGQCSVFPATDAPEQFISQVT [E3G],1.85
6,YAHLGQCSVFPATDAPEQFISQVT [E3H],1.93
7,YACLGQCSVFPATDAPEQFISQVT [E3C],2.21
8,YPELGQCSVFPATDAPEQFISQVT [A2P],3.42
9,YWELGQCSVFPATDAPEQFISQVT [A2W],2.5
10,YFELGQCSVFPATDAPEQFISQVT [A2F],2.32
11,YKELGQCSVFPATDAPEQFISQVT [A2K],3.47
12,YDELGQCSVFPATDAPEQFISQVT [A2D],4.09
13,YEELGQCSVFPATDAPEQFISQVT [A2E],4.46
14,YRELGQCSVFPATDAPEQFISQVT [A2R],3.6
15,YIELGQCSVFPATDAPEQFISQVT [A2I],1.64
16,YQELGQCSVFPATDAPEQFISQVT [A2Q],2.79
17,YHELGQCSVFPATDAPEQFISQVT [A2H],2.57
18,YSELGQCSVFPATDAPEQFISQVT [A2S],3.15
19,YMELGQCSVFPATDAPEQFISQVT [A2M],2.46
20,YVELGQCSVFPATDAPEQFISQVT [A2V],2.15
21,YLELGQCSVFPATDAPEQFISQVT [A2L],2.36
22,YCELGQCSVFPATDAPEQFISQVT [A2C],1.92
23,YNELGQCSVFPATDAPEQFISQVT [A2N],3.75
24,YYELGQCSVFPATDAPEQFISQVT [A2Y],2.43
25,YTELGQCSVFPATDAPEQFISQVT [A2T],2.25
26,YGELGQCSVFPATDAPEQFISQVT [A2G],3.29
